Data set [1] deals with the molecule itself. Description: AUC; sedimentation velocity, absorbance at 280 nm, NanR alone at 3.3, 10 and 30 uM in 20 mM Tris-HCl pH 8.0, 150 mM NaCl, 20 °C, 50,000 rpm.
Data set [2] concerns the molecule itself. Description: AUC; multiwavelength sedimentation velocity (220-300 nm) of protein titrated against (GGTATA)3-repeat DNA, 50 mM sodium phosphate pH 7.4, 150 mM NaCl, 20 °C; oligomer told from the molar ratio of protein to DNA in co-migrating peaks.

B1: Escherichia coli Nan repressor (NanR) (natural protein, E. coli K12, UniProt P0A8W0 1-263, looked up)
chain: MGLMNAFDSQTEDSSPAIGRNLRSRPLARKKLSEMVEEELEQMIRRREFGEGEQLPSERELMAFFNVGRPSVREALAALKRKGLVQINNGERARVSRPSADTIIGELSGMAKDFLSHPGGIAHFEQLRLFFESSLVRYAAEHATDEQIDLLAKALEINSQSLDNNAAFIRSDVDFHRVLAEIPGNPIFMAIHVALLDWLIAARPTVTDQALHEHNNVSYQQHIAIVDAIRRHDPDEADRALQSHLNSVSATWHAFGQTTNKKK
notes: NanR, GntR-type transcriptional repressor of E. coli K12; the synthesised nanR gene in pET28a; the dimer mass used (59 kDa) fits an untagged chain; Expressed with 100 uM ZnCl2; carries Zn2+; For the crystals the protein was treated in situ with chymotrypsin, and the cut limits are not known; also called wild-type NanR; E. coli NanR
On to B1, for which the “stoichiometry N” value in data set [1] is 2.

B2: truncated NanR construct NanR^33–263 (domain or fragment, E. coli K12, UniProt P0A8W0 33-263, looked up)
chain: SEMVEEELEQMIRRREFGEGEQLPSERELMAFFNVGRPSVREALAALKRKGLVQINNGERARVSRPSADTIIGELSGMAKDFLSHPGGIAHFEQLRLFFESSLVRYAAEHATDEQIDLLAKALEINSQSLDNNAAFIRSDVDFHRVLAEIPGNPIFMAIHVALLDWLIAARPTVTDQALHEHNNVSYQQHIAIVDAIRRHDPDEADRALQSHLNSVSATWHAFGQTTNKKK
notes: amplified from nanR and cloned into pET28a; No tag is named
As to B2, the binding result in data set [2] is reported as “binds”.

The stoichiometry N is a count of units in the complex or per binding partner.
